{
  "source": "patent US8465945B2",
  "about": "“Method for production and use of mite group 1 proteins” (Merck Patent GmbH, priority 1999, dated 2013)",
  "molecules": {"B1": {"name": "PDerf1303b: Recombinant Der f 1 expressed by P. pastoris HCY215 from nDerf1909b (pro-form, SEQ ID NO:29); actually secreted as mature form (protein, listed as Dermatophagoides farinae)", "chain": "RPASIKTFEEFKKAFNKNYATVEEEEVARKNFLESLKYVEANKGAINHLSDLSLDEFKNRYLMSAEAFEQLKTQFDLNAETSACRINSVNVPSELDLRSLRTVTPIRMQGGCGSCWAFSGVAATESAYLAYRNTSLDLSEQELVDCASQHGCHGDTIPRGIEYIQQNGVVEERSYPYVAREQRCRRPNSQHYGISNYCQIYPPDVKQIREALTQTHTAIAVIIGIKDLRAFQHYDGRTIIQHDNGYQPNYHAVNIVGYGSTQGDDYWIVRNSWDTTWGDSGYGYFQAGNNLMMIEQYPYVVIM"}},
  "key": {"[1]": {"test_system": "IgE from mite-allergic dog sera", "assay": "ELISA, binding of IgE from dog sera to coated Der f 1 proteins or mite extracts, detected with FcεR1α-biotin"}, "[2]": {"test_system": "IgE from pooled mite-allergic human sera", "assay": "Monoclonal Capture ELISA (Example 8B, Table 7)", "type": "binding", "method": "Assays were carried out as follows. A microtiter plate as described in Example 5 was coated overnight at 4° C. with 100 ng/well of anti-Der f 1 protein monoclonal antibody 6A8, denoted herein as anti-Der f 1 MAb 6A8, provided by Dr. Martin Chapman. The plate was washed in the manner described above. The following proteins were then added to wells, having been diluted in Assay Buffer in a 2-fold dilution series, from 0.75 to 50 ng/well: Heska native Derf1, P. pastoris-expressed PDerf1303b, and E. coli-expressed PDerf1303c. After incubation for 1 hour at room temperature, plates were washed as described in Example 5. Then 100 μl per well of a 1:1000 dilution in Assay Buffer of biotinylated anti-Der f 1 monoclonal antibody 4C1, also denoted anti-Der f 1 MAb 4C1, provided by Dr. Martin Chapman, was added for 1 hour at room temperature. Plates were washed, streptavidin-HRP conjugate was added, and plates were developed as described in Example 5.\nB. The Der f 1 proteins described in Example 8B were reacted as described in Example 6 with a pool of serum samples collected from 16 mite-allergic human patients."}},
  "data": [
    {"molecule": "B1", "values": [
      {"measurement": "OD, bound IgE", "setting": "[1]; Assay Number 1, serum dog pool", "result": 364, "unit": "OD multiplied by 1000"},
      {"measurement": "OD, bound IgE", "setting": "[1]; Assay Number 1, serum dog-1", "result": 21, "unit": "OD multiplied by 1000"},
      {"measurement": "OD, bound IgE", "setting": "[1]; Assay Number 1, serum dog-2", "result": 1490, "unit": "OD multiplied by 1000"},
      {"measurement": "OD, bound IgE", "setting": "[1]; Assay Number 1, serum dog-3", "result": 2499, "unit": "OD multiplied by 1000"},
      {"measurement": "OD, bound IgE", "setting": "[1]; Assay Number 2, dog sera pool A 146", "result": 199, "unit": "OD multiplied by 1000"},
      {"measurement": "OD, bound IgE", "setting": "[1]; Assay Number 2, dog sera pool KS338", "result": 27, "unit": "OD multiplied by 1000"},
      {"measurement": "reactivity: share of dog serum samples reactive to native Der f 1 proteins that are also reactive to the recombinant protein", "setting": "[1]; Table 1, 3 dog serum samples", "result": 100, "unit": "%"},
      {"measurement": "OD, Monoclonal Capture ELISA", "setting": "[2]; 0.39 ng protein per well", "result": 434, "unit": "OD"},
      {"measurement": "OD, Monoclonal Capture ELISA", "setting": "[2]; 0.78 ng protein per well", "result": 871, "unit": "OD"},
      {"measurement": "OD, Monoclonal Capture ELISA", "setting": "[2]; 1.55 ng protein per well", "result": 1399, "unit": "OD"},
      {"measurement": "OD, Monoclonal Capture ELISA", "setting": "[2]; 3.1 ng protein per well", "result": 2103, "unit": "OD"},
      {"measurement": "OD, Monoclonal Capture ELISA", "setting": "[2]; 6.25 ng protein per well", "result": 2463, "unit": "OD"},
      {"measurement": "OD, Monoclonal Capture ELISA", "setting": "[2]; 12.5 ng protein per well", "result": 2388, "unit": "OD"},
      {"measurement": "OD, Monoclonal Capture ELISA", "setting": "[2]; 25 ng protein per well", "result": 2389, "unit": "OD"}
    ]}
  ]
}
